Assay [1] deals with reconstituted 26S proteasome (S. cerevisiae), all wild-type components (S. cerevisiae) (UniProt P33299).
Assay [2] addresses reconstituted 26S proteasome with Cy3-labeled base (Rpt1-I191AzF-Cy3) (S. cerevisiae) (UniProt P33299). In words: FRET or BRET. In general terms: In BRET a luciferase serves as donor, and the signal depends on an acceptor being close.

As for “ubiquitinated 5-FAM-titin-I27^V15P-35 (from UniProt P0CG63 1-76)”, the KM of multiple-turnover degradation (Michaelis-Menten, anisotropy of 5-FAM) in assay [1] came to 0.22 µM. As to “ubiquitinated titin-I27^V15P-1 (1 AA tail), acceptor-labeled (from UniProt P0CG63 1-76)”, the FRET amplitude of tail insertion, percent of that of the 35-residue tail in assay [2] was 16%. Substance “ubiquitinated titin-I27^V15P-11 (11 AA tail), acceptor-labeled (from UniProt P0CG63 1-76)” returned an FRET amplitude of tail insertion, percent of that of the 35-residue tail in assay [2] of 25%. For “ubiquitinated titin-I27^V15P-35 modified with Cy5 on its unstructured tail (from UniProt P0CG63 1-76)”, in assay [2], the time constant of tail insertion (FRET change) was 1.6 s.
